# Entries after “also recorded” stand apart in the source; their conditions may differ.
# B1: Abet0380-GL IgG1-TM: germlined Abet0380; VH SEQ ID NO: 524, VL SEQ ID NO: 533; human IgG1 triple mutant format (antibody, listed as Homo sapiens, V domains shown)
# VH: EVQLLESGGGLVQPGGSLRLSCAASMGNFNYQTMWWVRQAPGKGLEWVSVIGKTNENIAYADSVKGRFTISRDNSKNTLYLQMNSLRAEDTAVYYCAREWMDHSRPYYYYGMDVWGQGTLVTVSS
# VL: SYELTQPPSVSVSPGQTASITCSGHNLEDKFASWYQQKPGQSPVLVIYRDDKRPSGIPERFSASNSGHTATLTISGTQAMDEADYYCSSQDTVTRVFGGGTKLTVL
# modifications: human IgG1 triple mutant constant region; /note=“Abet0380-GL”
# notes: germlined Abet0380; human IgG1 triple mutant format
# Experiments:
# Amyloid beta plaques = assay: In vivo binding to Amyloid beta plaques in aged Tg2576 mice (immunohistochemistry); parameters: species or system mouse; conditions: 168 hours after single i.v. dose of 10 or 30 mg/kg
# Experimental: Abet0380-GL IgG1-TM was tested for its ability to bind to Amyloid beta plaques in aged Tg2576 mice after a single peripheral dose. Animal experimentations were performed in accordance with relevant guidelines and regulations provided by the Swedish Board of Agriculture. The ethical permission was provided by an ethical board specialized in animal experimentations: the Stockholm Sodra Animal Research Ethical Board. Seventeen-month old female Tg2576 mice (n=5) received a single dose of vehicle, a positive control antibody at 30 mg/kg or the Abet0380-GL IgG1-TM antibody at 10 or 30 mg/kg by intravenous injection with a dosing vehicle of 25 mM Histidine, 7% Sucrose, 0.02% p80 surfactant, pH 6.0 at 5 mL/kg. At 168 hours after dose, animals were deeply anaesthetized and perfused with room temperature PBS followed by cold (4° C.) phosphate buffered 4% paraformaldehyde (PFA). Animals were then sacrificed by decapitation and brains were dissected and immersions fix in PFA at 4° C. for 72 hours. The fixative was exchanged to PBS containing 0.1% sodium azide and tissues were stored at 4° C. until further processed. […]
# Scoring of the staining was carried out in a blinded fashion under 10× optical magnification. […] The intensity of plaque labelling was scored according to a relative intensity scale from 0 (no staining of plaques) up to 4 (intense decoration of plaques).
# [1] = tested on: Amyloid beta 1-40 peptide; assay: Total Amyloid beta 1-40 peptide in rat brain homogenates (ELISA); format: in vivo; conditions: Sprague-Dawley rats, 0.25-10 mg/kg weekly over 14 days
# Experimental: […] Dosing solutions were made just before dosing. Animals were anaesthetized at the time indicated and cerebrospinal fluid (CSF) was aspirated from the cistema magna. CSF samples were centrifuged for 10 minutes at approximately 3000× g at 4° C. within 20 minutes of sampling to remove cells or debris. Samples were then frozen on dry ice and stored at −70° C. for subsequent analysis.
# Animals were sacrificed by decapitation, brain tissue was dissected and Amyloid beta peptides were extracted from brain tissue in diethylamine (DEA; Fluka. Sigma. UK; cat: 31729). Briefly, frozen brain tissue was homogenized in 0.2% DEA and 50 mM NaCl (Merck, USA: cat: 1.06404.1000). Brain homogenates were ultracentrifuged at 133,000×g, for 1 hour. Recovered supernatants were neutralized to pH 8.0 with 2 M Tris-HCl (TRIZMA®-hydrochloride; Sigma, UK; cat: 93363) and stored at −70° C. until analysis. Animal experimentations were performed in accordance with relevant guidelines and regulations provided by the Swedish Board of Agriculture. […]
# Measurement of total Amyloid beta 1-40 peptide in rat brain homogenates was performed using the mouse Amyloid beta (1-40) colorimetric ELISA kit (Invitrogen, UK; cat: KMB3481). […] To stop the reaction, 100 μl of Stop Solution was added to each well and the plate was read within 2 hours at an absorbance of 450 nm. […]
# [2] = biological target: T1, human Amyloid beta 1-42 peptide (Homo sapiens, UniProt P05067); assay: Surface Plasmon Resonance binding kinetics of IgGs (BIAcore T-100); conditions: IgG1-TM captured on protein G; 1:1 Langmuir fit
# T1 construct: biotinylated human Amyloid beta 1-42 peptide (rpeptide, USA; cat: A1117); purchased rPeptide, USA A1117; host or cells: synthetic peptide
# Experimental: Surface Plasmon Resonance was used to analyse the binding kinetics of the affinity-optimized IgGs (section 1.8) and their germlined counterparts (section 1.9). Briefly, the BIAcore T-100 (GE Healthcare, UK) biosensor instrument was used to assess the kinetic parameters of the interaction between each test IgG and synthetically-produced human Amyloid beta 1-42 peptide. These experiments were performed essentially as described by Karsson et al. (Karlsson et al., 1991).
# The affinity of binding between each test IgG and human Amyloid beta 1-42 was estimated using assays in which each antibody was non-covalently captured by a protein G surface that was itself amine linked to a proprietary CM5 chip. The chip surface was regenerated between cycles by paired 40 second injections of 10 mM Glycine pH 2.0 to remove ligand and bound antibody. The test antibody was then reapplied for each peptide injection.
# A series of dilutions of synthetic human Amyloid beta 1-42 peptide (0.063-1024 nM) were sequentially passed over the antibody surface for a sufficient amount of time to observe sensorgrams that could be fitted to an appropriate binding model with confidence. […]
# The validity of the data was assessed using the calculated Chi^2 value, with an acceptable value being under 2 RU^2. […]
# T1 sequence (P05067 672-713): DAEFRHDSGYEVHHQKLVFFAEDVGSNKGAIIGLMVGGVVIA
molecule,measurement,setting,value
B1,in vivo decoration of Amyloid beta plaques or CAA,Amyloid beta plaques,did not decorate; also recorded: does not show any in vivo plaque decoration
same,effect on total Amyloid beta 1-40 peptide in brain tissue,[1],unaffected
same,association rate constant (ka),[2],952000 M⁻¹ s⁻¹
same,dissociation rate constant (kd),[2],0.000307 s⁻¹
